From article doi:10.1101/2025.04.02.646914

Key:
Test in all cases: FP
MS2 coat protein N55D = MS2 coat protein N55D (bacteriophage MS2, UniProt P03612 2-130, N56D)
MS2 coat protein W32A = MS2 coat protein W32A (bacteriophage MS2, UniProt P03612 2-130, W33A)
MS2 coat protein WT = MS2 coat protein WT (bacteriophage MS2, UniProt P03612 2-130)

CCUACAUGAGGAUUACCCAUGUU (structured_RNA) [5' fluoro MS2 SL]: no binding (MS2 coat protein N55D); no binding (MS2 coat protein W32A); binds (MS2 coat protein WT).
